Consider 2 molecules from US20130196320A1, “METHOD FOR IMPROVING CLEAVAGE OF DNA BY ENDONUCLEASE SENSITIVE TO METHYLATION” (CELLECTIS, priority 2010, published 2013).

For orientation: Kd means the constant that tells how readily two partners part at equilibrium. High values mean a looser complex, low ones a tighter complex.

For data set [1], the target named is T1, XPC4 meganuclease (I-CreI-derived) (Artificial Sequence).
T1 chain: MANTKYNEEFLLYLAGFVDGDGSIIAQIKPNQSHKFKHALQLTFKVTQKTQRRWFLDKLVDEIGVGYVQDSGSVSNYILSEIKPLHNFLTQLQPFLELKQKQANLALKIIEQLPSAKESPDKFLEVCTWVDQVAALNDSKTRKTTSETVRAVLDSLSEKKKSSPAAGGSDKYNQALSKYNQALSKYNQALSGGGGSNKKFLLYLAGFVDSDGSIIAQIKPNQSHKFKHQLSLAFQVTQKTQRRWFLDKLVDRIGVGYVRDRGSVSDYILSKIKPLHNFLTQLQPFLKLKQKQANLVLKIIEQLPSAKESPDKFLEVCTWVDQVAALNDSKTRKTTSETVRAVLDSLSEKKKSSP
The experiment in a line: FP; 10 mM CaCl2, 150 mM NaCl, pH8, 25 C.

Data set [2] addresses T1, XPC4 meganuclease (I-CreI-derived). As to the kind of experiment: FP; 10 mM CaCl2, 150 mM NaCl, pH8, 25 C; not significantly different from unmethylated.

B1: XPC4.1 (dsDNA)
DNA 1: TCGAGATGTCACACAGAGGTACGA
DNA 2: TCGTACCTCTGTGTGACATCTCGA
In data set [1], B1 showed a Kd of 0.108 µM.

B2: XPC4.1_Me -11a/-10b & +10a/+11b (dsDNA)
DNA 1: TCGAGATGTCACACAGAGGTACGA
DNA 2: TCGTACCTCTGTGTGACATCTCGA
modifications: 5mC at -11a, -10b, +10a, +11b
B2: the affinity in data set [2], expressed as Kd, was 0.127 µM.
